# Measured values as given in PMC2532715.
# T1: SgrAI restriction endonuclease (UniProt Q9F6L0 1-338)
# T1 sequence: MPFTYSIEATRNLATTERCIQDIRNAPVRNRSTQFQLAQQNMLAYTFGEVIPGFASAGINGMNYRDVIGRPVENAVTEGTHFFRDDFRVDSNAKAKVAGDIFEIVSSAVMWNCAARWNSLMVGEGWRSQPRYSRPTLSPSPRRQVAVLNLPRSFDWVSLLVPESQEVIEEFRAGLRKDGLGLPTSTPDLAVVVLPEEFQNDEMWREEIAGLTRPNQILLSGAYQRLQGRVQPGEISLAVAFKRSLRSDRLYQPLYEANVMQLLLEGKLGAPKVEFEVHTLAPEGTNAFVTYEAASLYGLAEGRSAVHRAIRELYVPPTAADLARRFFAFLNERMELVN
# B1: Cognate 18 (dsDNA)
# DNA 1: GAGTCCACCGGTGGACTC
# DNA 2: GAGTCCACCGGTGGACTC
# Target: T1, SgrAI restriction endonuclease
# Experiment: X-ray crystallography
binder,measurement,value
B1,binding result,binds
